The record followed here is publication PMC9354048.

The assay concerns the target (opt)EsTKγ (Eptatretus stouti thread keratin γ, from a codon-optimised gene) (Eptatretus stouti). The assay is described as follows: co-assembly by dialysis out of urea, gel separated by ultrafiltration centrifugation and analysed by SDS-PAGE; crudely purified proteins, each 1.0 mg/ml in 8 M urea, 0.02 M NaH2PO4, 0.5 M NaCl, mixed 1:1; gradient dialysis 8 M to 4 M to 2 M to 0 M urea in 2 mM Tris, 1 mM DTT, pH 9, 4°C, 72 h; concentrated in a 10 kDa ultrafiltration tube; gel-like product picked up, diluted and run on SDS-PAGE.

A word on the stoichiometry N: it is the number of molecules, sites or subunits per partner or assembly. Take “(opt)EsTKα (Eptatretus stouti thread keratin α, from a codon-optimised gene) (natural protein)”: the stoichiometry N is 1.
